Results published in the nanobody polyreactivity screen of Harvey et al. (2022).

Experiment: yeast display, Sf9 membrane polyspecificity reagent, FACS + sequencing; frameworks hold sequencing errors
In short: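 Galactose induction of a Saccharomyces cerevisiae BJ5465 synthetic nanobody display library ran 36–48 hours. The cells were then stained for 1 hour at 4 °C with 10% biotinylated, detergent-solubilized Sf9 membrane reagent, pulled down on streptavidin microbeads and FACS-sorted into low and high (top ~1%) gates on expression and reagent-binding fluorescence. Labels for polyreactivity follow the gate of origin.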

Sequence | polyreactivity (PSR sort gate)
QVQLVESGGGLVQAGASLRLSCAASGRILKTYAMGSYRQAPGKERELVAAITGRGGRTYYADSVKGRFTISRDNAKNTFYLQMISLKPEDTAVYYCAAYYGPSRSLYYYWGQGSQVTVSS | high polyreactivity
QVQLVESGGGLVQAGGSLRLSCAASGSTFGVYAMGWYRPAPGKERELVAAIRWSGGGTYYADSVKGRFTISRDNAKNTVYLQMNSLKPEDTAVYYCNTDILSIYAEPYYFTDVDYWGQGTQVTVSS | low polyreactivity
QVQLVESGGGLVQAGGSLRLSCAASGSIFYVNAMGWYRQAPGKERELVASITASGGTTYYADSVKGRFTISRDNAKNTVYLQMNSLKPEDTAVYYCAATFIQVVVNVQLYDYDYWGQGTQVTVSS | low polyreactivity
QVQLVESGGGLVQAGGSLRLSCAASGSTFGLYAMGWYRQAPGKERELVADITWSGGSTYYADSVKGRFTISRDNAKNTVYLQMNSLKPEDTAVYYCAARYPWVYYDFDYWGQGTQVTVSS | low polyreactivity
QVQLVESGGGLVQAGGSLRLSCAASGSIFRLNAMGWYRQAPGKERELVAAISVSGTRTYYADSVKGRFTISRDNAKNIVYLQMNSLKPEDTAVYYCAARVYKGQGKGDYWGQGTQVTVSS | high polyreactivity
QVQLVESGGGLVQAGGSLRLSCAASGSTFDRYAMGWYRQAPGKERELVAAISCSGGRTYYADSVKGRFTISRDNEKNTVYLQMNSLKPEDTAVYYCATVSRSSLAYIKYDYWGQGTQVTVSA | high polyreactivity
QVQLVESGGGLVQAGGSLRLICAASGSTFIGNVMGWYRQAPGKERELVAAITSTDSTDYADSVKGRFTISRDNAKNTVYLQMNSLKPEDTAVYYCNAEYEYGSAYWSGVYYWYNYWGQGTQVTVSS | high polyreactivity
QVQLVESGGGLVQAGGSLRLSCAASGSIFLYNAMGWYRQAPGKERELVAGITFIGGSTYYADSVKGRFTISRDNAKNTVYLQMNSLKPEDTAVYYCNADVAPGIFYGYDSWGQGTQVTVSS | low polyreactivity
QVQLQESGGGLVQAGGSLRLSCAASDYIFPYKPKGWYRQAPGKEREFVATIATGGSTNYADSVKGRFTISRDNAKNTVYLQMNSLKPEDTAVYYCAVYGGPAGYLTYRGQGTQVTVSS | high polyreactivity
